The target of this data set is Tat peptide (47-57) (Human immunodeficiency virus 1). Description: EMSA; non-cognate RNA; higher affinity than CPP11; 10 mM potassium phosphate pH 7.5, 100 mM NaCl. As to conditions: protein: synthetic; tags: chemically synthesized peptide; stem-loop. (In general: A gel shift assay detects complexes by their altered migration in electrophoresis.)

B1: wild-type RRE IIB RNA (ssRNA)
RNA: GGACCUGGUAUGGGCGCAGCGCAAGCUGACGGUACAGGCCAGGUCC
Consider B1, for which the binding result was “binds”.
